The values below are quoted from earlier work in article PMC11394807.

Series [1] addresses Spike protein (SARS-CoV-2) (UniProt P0DTC2).
Series [2] shares this target. This is another data set of the same source.
For series [3], the target named is Spike protein RBD (SARS-CoV-2) (UniProt P0DTC2).
Series [4] addresses Spike protein (SARS-CoV-2) (UniProt P0DTC2). The source holds these as a separate data set.
Series [5] shares this target. This is another data set of the same source.

pKd: −log10 of the molar value. Like-named read-outs stand apart in the source and are kept apart here.

Sequence of GRP78 (P11021 19-654): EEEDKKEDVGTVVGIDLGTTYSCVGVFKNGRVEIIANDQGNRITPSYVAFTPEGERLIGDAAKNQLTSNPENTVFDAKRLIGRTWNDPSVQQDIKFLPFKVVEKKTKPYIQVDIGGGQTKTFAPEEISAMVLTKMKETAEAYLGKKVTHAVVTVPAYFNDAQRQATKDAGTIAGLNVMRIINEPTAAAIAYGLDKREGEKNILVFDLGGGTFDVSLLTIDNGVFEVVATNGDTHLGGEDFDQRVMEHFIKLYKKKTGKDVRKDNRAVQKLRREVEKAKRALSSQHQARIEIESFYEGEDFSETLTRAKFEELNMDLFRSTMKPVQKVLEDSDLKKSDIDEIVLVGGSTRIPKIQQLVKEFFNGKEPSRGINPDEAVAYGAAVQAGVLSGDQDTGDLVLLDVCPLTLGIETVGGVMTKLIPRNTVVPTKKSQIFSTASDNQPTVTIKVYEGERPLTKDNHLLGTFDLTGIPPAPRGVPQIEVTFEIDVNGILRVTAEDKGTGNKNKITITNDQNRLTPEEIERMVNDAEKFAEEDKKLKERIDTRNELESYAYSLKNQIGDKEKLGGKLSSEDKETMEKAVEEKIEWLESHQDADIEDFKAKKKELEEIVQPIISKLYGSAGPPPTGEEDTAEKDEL
Sequence of ASGR1 (P07306 whole entry): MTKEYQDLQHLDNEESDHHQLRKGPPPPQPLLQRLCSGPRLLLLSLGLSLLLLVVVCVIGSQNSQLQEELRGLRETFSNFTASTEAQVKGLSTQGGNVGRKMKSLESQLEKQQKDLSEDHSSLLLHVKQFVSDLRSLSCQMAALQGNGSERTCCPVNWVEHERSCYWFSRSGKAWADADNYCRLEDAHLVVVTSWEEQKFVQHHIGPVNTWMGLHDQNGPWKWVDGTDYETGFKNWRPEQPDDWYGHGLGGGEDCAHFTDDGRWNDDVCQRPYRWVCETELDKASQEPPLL

Take GRP78 (from UniProt P11021): the negative-log Kd (pKd) (as a rule, the Kd on a negative log10 scale, so that one unit is a factor of ten) in series [1] was 7.26. In the case of AXL (from UniProt P30530), the pKd in series [2] was 6.05. Turning to CD147 (from UniProt P35613), the pKd in series [3] was 6.73. Turning to NRP1 (from UniProt O14786), the pKd in series [4] is 6.78. Turning to ASGR1 (from UniProt P07306), the negative logarithm of the Kd (pKd) in series [5] was 6.90.
